Laboratory results from PMC9117670, “Structural basis for inhibition of the Cation-chloride cotransporter NKCC1 by the diuretic drug bumetanide” (Nature Communications, 2022).

Target: the molecule itself
Test: cryo-EM structure; single-particle cryo-EM with bumetanide; low [Cl-] buffer: 20 mM HEPES pH 7.4, 50 mM Na2SO4, 25 mM K2SO4, 5 mM NaCl, 0.06% digitonin, bumetanide to 500 uM

| Protein | stoichiometry N |
| --- | --- |
| NKCC1iii (full-length human NKCC1 with K289N, A492E and L671C mutations) (natural protein, UniProt P55011 1-1212, looked up, Human Na-K-2Cl cotransporter NKCC1, full length, with K289N, A492E and L671C; MBP followed by a TEV site was fused immediately before the N-terminus and removed with TEV protease before size exclusion and cryo-EM; Residues 927-1021 are not defined in the model; also called Lys289Asn/Ala492Glu/Leu671Cys NKCC1 transporter; NKCCiii; source: HEK293S GnTI-/- cells (BacMam system), purified (amylose …)) MEPRPTAPSSGAPGLAGVGETPSAAALAAARVELPGTAVPSVPEDAAPASRDGGGVRDEGPAAAGDGLGRPLGPTPSQSRFQVDLVSENAGRAAAAAAAAAAAAAAAGAGAGAKQTPADGEASGESEPAKGSEEAKGRFRVNFVDPAASSSAEDSLSDAAGVGVDGPNVSFQNGGDTVLSEGSSLHSGGGGGSGHHQHYYYDTHTNTYYLRTFGHNTMDAVPRIDHYRHTAAQLGEKLLRPSLAELHDELEKEPFEDGFANGEESTPTRDAVVTYTAESKGVVKFGWINGVLVRCMLNIWGVMLFIRLSWIVGQAGIGLSVLVIMMATVVTTITGLSTSAIATNGFVRGGGAYYLISRSLGPEFGGAIGLIFAFANAVAVAMYVVGFAETVVELLKEHSILMIDEINDIRIIGAITVVILLGISVAGMEWEAKAQIVLLVILLLAIGDFVIGTFIPLESKKPKGFFGYKSEIFNENFGPDFREEETFFSVFEIFFPAATGILAGANISGDLADPQSAIPKGTLLAILITTLVYVGIAVSVGSCVVRDATGNVNDTIVTELTNCTSAACKLNFDFSSCESSPCSYGLMNNFQVMSMVSGFTPLISAGIFSATLSSALASLVSAPKIFQALCKDNIYPAFQMFAKGYGKNNEPLRGYILTFLIALGFILIAECNVIAPIISNFFLASYALINFSVFHASLAKSPGWRPAFKYYNMWISLLGAILCCIVMFVINWWAALLTYVIVLGLYIYVTYKKPDVNWGSSTQALTYLNALQHSIRLSGVEDHVKNFRPQCLVMTGAPNSRPALLHLVHDFTKNVGLMICGHVHMGPRRQAMKEMSIDQAKYQRWLIKNKMKAFYAPVHADDLREGAQYLMQAAGLGRMKPNTLVLGFKKDWLQADMRDVDMYINLFHDAFDIQYGVVVIRLKEGLDISHLQGQEELLSSQEKSPGTKDVVVSVEYSKKSDLDTSKPLSEKPITHKVEEEDGKTATQPLLKKESKGPIVPLNVADQKLLEASTQFQKKQGKNTIDVWWLFDDGGLTLLIPYLLTTKKKWKDCKIRVFIGGKINRIDHDRRAMATLLSKFRIDFSDIMVLGDINTKPKKENIIAFEEIIEPYRLHEDDKEQDIADKMKEDEPWRITDNELELYKTKTYRQIRLNELLKEHSSTANIIVMSLPVARKGAVSSALYMAWLEALSKDLPPILLVRGNHQSVLTFYS | 2 |
| NKCC1ii (full-length human NKCC1 with K289N and A492E mutations) (natural protein, UniProt P55011 1-1212, looked up, Human Na-K-2Cl cotransporter NKCC1, full length, with K289N and A492E; MBP followed by a TEV site was fused immediately before the N-terminus and removed with TEV protease before size exclusion and cryo-EM; also called NKCCii; source: HEK293S GnTI-/- cells (BacMam system), purified (amylose resin, TEV protease, Superose 6) in digitonin; not shown: MBP, N-terminal, cleaved) MEPRPTAPSSGAPGLAGVGETPSAAALAAARVELPGTAVPSVPEDAAPASRDGGGVRDEGPAAAGDGLGRPLGPTPSQSRFQVDLVSENAGRAAAAAAAAAAAAAAAGAGAGAKQTPADGEASGESEPAKGSEEAKGRFRVNFVDPAASSSAEDSLSDAAGVGVDGPNVSFQNGGDTVLSEGSSLHSGGGGGSGHHQHYYYDTHTNTYYLRTFGHNTMDAVPRIDHYRHTAAQLGEKLLRPSLAELHDELEKEPFEDGFANGEESTPTRDAVVTYTAESKGVVKFGWINGVLVRCMLNIWGVMLFIRLSWIVGQAGIGLSVLVIMMATVVTTITGLSTSAIATNGFVRGGGAYYLISRSLGPEFGGAIGLIFAFANAVAVAMYVVGFAETVVELLKEHSILMIDEINDIRIIGAITVVILLGISVAGMEWEAKAQIVLLVILLLAIGDFVIGTFIPLESKKPKGFFGYKSEIFNENFGPDFREEETFFSVFEIFFPAATGILAGANISGDLADPQSAIPKGTLLAILITTLVYVGIAVSVGSCVVRDATGNVNDTIVTELTNCTSAACKLNFDFSSCESSPCSYGLMNNFQVMSMVSGFTPLISAGIFSATLSSALASLVSAPKIFQALCKDNIYPAFQMFAKGYGKNNEPLRGYILTFLIALGFILIAELNVIAPIISNFFLASYALINFSVFHASLAKSPGWRPAFKYYNMWISLLGAILCCIVMFVINWWAALLTYVIVLGLYIYVTYKKPDVNWGSSTQALTYLNALQHSIRLSGVEDHVKNFRPQCLVMTGAPNSRPALLHLVHDFTKNVGLMICGHVHMGPRRQAMKEMSIDQAKYQRWLIKNKMKAFYAPVHADDLREGAQYLMQAAGLGRMKPNTLVLGFKKDWLQADMRDVDMYINLFHDAFDIQYGVVVIRLKEGLDISHLQGQEELLSSQEKSPGTKDVVVSVEYSKKSDLDTSKPLSEKPITHKVEEEDGKTATQPLLKKESKGPIVPLNVADQKLLEASTQFQKKQGKNTIDVWWLFDDGGLTLLIPYLLTTKKKWKDCKIRVFIGGKINRIDHDRRAMATLLSKFRIDFSDIMVLGDINTKPKKENIIAFEEIIEPYRLHEDDKEQDIADKMKEDEPWRITDNELELYKTKTYRQIRLNELLKEHSSTANIIVMSLPVARKGAVSSALYMAWLEALSKDLPPILLVRGNHQSVLTFYS | 2 |
